Target: HNF1A (rHNF1A) (UniProt P20823 1-631)
Test: EMSA; two complexes, complex 1 more abundant; abolished by 300x unlabeled probe; 12 mM Hepes pH 7.9, 60 mM KCl, 10% glycerol, 1 mM EDTA, 1 mM MgCl2, 1 mM DTT plus DNA mix (1 mM spermidine, 1 mM MgCl2), 1 ug poly(dG/dC)·poly(dG-dC), 4 C; probe 1.29 nM (0.52 nM in mutant titration); 6% PAGE, 0.5x TBE
Settings: protein: ivt; chain copies: 2; label: 32P 5' end (T4 PNK)

Sequence of HNF1A (rHNF1A) (P20823 whole entry): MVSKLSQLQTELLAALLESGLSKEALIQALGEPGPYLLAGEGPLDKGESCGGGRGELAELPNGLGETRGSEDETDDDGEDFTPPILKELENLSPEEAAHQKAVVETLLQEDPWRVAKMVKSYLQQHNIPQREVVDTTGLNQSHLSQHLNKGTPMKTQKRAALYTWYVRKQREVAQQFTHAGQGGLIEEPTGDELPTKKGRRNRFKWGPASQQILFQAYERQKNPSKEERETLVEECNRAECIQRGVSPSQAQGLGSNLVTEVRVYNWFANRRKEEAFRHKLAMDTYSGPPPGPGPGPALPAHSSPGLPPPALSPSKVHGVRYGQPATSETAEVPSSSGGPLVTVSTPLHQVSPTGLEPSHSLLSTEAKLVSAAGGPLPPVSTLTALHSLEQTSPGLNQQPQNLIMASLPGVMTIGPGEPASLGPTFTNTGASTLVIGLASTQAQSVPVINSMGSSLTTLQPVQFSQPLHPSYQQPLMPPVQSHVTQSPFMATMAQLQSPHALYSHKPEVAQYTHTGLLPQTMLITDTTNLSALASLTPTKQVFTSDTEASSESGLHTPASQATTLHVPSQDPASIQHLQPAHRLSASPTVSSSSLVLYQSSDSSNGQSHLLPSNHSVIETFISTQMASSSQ

B1: GLUT2 promoter HNF1A site (dsDNA)
DNA 1: CTCAGTAAAGATTAACCAT
DNA 2: ATGGTTAATCTTTACTGAG
B1: binds.
